Test results as given in article PMC4076583 (The Journal of Experimental Medicine, 2014).

Experiments:
[1] = target: recombinant mouse Galectin-9 (mouse, UniProt O08573 1-353); assay: SPR
[2] = target: recombinant human Galectin-9 (human, UniProt O00182 1-355); assay: SPR
Chain of recombinant human Galectin-9 (O00182 whole entry): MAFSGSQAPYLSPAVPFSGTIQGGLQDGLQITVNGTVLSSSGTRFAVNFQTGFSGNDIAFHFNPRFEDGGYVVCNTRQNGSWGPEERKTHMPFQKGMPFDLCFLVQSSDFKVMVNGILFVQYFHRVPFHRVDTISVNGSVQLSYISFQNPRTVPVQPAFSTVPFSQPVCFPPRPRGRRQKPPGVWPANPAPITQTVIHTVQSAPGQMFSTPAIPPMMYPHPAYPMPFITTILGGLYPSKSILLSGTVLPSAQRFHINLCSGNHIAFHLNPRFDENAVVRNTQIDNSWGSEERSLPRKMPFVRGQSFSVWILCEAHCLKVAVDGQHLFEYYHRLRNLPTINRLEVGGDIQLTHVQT

Chain of recombinant mouse Galectin-9 (O08573 whole entry): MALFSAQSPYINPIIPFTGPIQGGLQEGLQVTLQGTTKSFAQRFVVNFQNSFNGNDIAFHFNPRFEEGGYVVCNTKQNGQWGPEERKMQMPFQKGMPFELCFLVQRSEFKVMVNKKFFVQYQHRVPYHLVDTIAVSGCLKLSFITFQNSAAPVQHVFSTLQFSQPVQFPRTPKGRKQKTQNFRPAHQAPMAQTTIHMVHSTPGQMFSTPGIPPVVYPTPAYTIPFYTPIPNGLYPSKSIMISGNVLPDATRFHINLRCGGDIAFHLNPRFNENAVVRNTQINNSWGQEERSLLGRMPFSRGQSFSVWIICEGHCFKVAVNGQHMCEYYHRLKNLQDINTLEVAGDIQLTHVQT

Kd [1] | Kd [2] | Binder
~0.011 µM | – | mouse 4-1BB.Fc, full-length extracellular 4-1BB (CRD1–4, amino acids 24–187) fused to human IgG1 Fc (Fc fusion, UniProt P20334 24-187, looked up) VQNSCDNCQPGTFCRKYNPVCKSCPPSTFSSIGGQPNCNICRVCAGYFRFKKFCSSTHNAECECIEGFHCLGPQCTRCEKDCRPGQELTKQGCKTCSLGTFNDQNGTGVCRPWTNCSLDGRSVLKTGTTEKDVVCGPPVVSFSPSTTISVTPEGGPGGHSLQVL
~0.018 µM | – | mouse 4-1BB.Fc CRD4 mutant (amino acids 118–187) (Fc fusion, UniProt P20334 118-187, looked up) TCSLGTFNDQNGTGVCRPWTNCSLDGRSVLKTGTTEKDVVCGPPVVSFSPSTTISVTPEGGPGGHSLQVL
– | ~0.035 µM | human 4-1BB.Fc CRD4 mutant (amino acids 119–186) (Fc fusion, UniProt Q07011 119-186, looked up) DCCFGTFNDQKRGICRPWTNCSLDGKSVLVNGTKERDVVCGPSPADLSPGASSVTPPAPAREPGHSPQ
